We go through two molecules from article PMC2632911.

What all share (assay): EMSA
In general terms: Mobility shift assays separate free from complexed probe on a gel.

One data set has as its target T1, H-NS wild type (UniProt P0ACF8 1-137).
T1 sequence: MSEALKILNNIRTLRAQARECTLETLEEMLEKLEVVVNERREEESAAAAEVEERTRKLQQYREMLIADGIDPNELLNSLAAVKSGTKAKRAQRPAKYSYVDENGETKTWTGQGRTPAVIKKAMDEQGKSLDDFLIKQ

Data set [1] concerns the target T2, Tn5 HA transposase (Tn5, UniProt Q46731 1-476, E54K;M56A;L372P).
Data set [2] addresses T3, H-NS wild type;Tn5 HA transposase (Escherichia coli?;Tn5, UniProt P0ACF8;Q46731 1-137;1-476, |E54K;M56A;L372P).
In data set [3] the target is T2, Tn5 HA transposase. This is another data set of the same source.
Data set [4] concerns the target T3, H-NS wild type;Tn5 HA transposase. The source holds these as a separate data set.
Data set [5] deals with H-NS wild type;Tn5 transposase delta369 EK/MA (Escherichia coli?;Tn5, UniProt P0ACF8;Q46731 1-137;1-368, |E54K;M56A).
Data set [6] addresses T3, H-NS wild type;Tn5 HA transposase. This is another data set of the same source.
The target in data set [7] is Tn5 transposase delta369 EK/MA (Tn5, UniProt Q46731 1-368, E54K;M56A).
Data set [8] addresses H-NS P116S;Tn5 transposase delta369 EK/MA (Escherichia coli?;Tn5, UniProt P0ACF8;Q46731 1-137;1-368, P116S|E54K;M56A).

Read-outs that look alike come from different tables or passages of the source. A value given as a limit tells only on which side of the number the result lay.

B1: 20 bp ME (dsDNA)
DNA 1: CTGTCTCTTATACACATCTT
DNA 2: AAGATGTGTATAAGAGACAG
Consider B1, for which the binding result in the data set with H-NS wild type is recorded as “no binding”; in the data set with Tn5 HA transposase [1], “binds”; in data set [2] it was “binds”.

B2: 53 bp ME (WT) (dsDNA)
DNA 1: CCCTGCAGGTCGACTGTCTCTTATACACATCTTGAGTGAGTGAGCATGCATGT
DNA 2: ACATGCATGCTCACTCACTCAAGATGTGTATAAGAGACAGTCGACCTGCAGGG
Regarding B2, the binding result with Tn5 HA transposase [3] is listed as “binds”; in data set [5], “binds”; in [7], “binds”; in data set [8] it was “no binding”. In addition, the figures for the binding signal in [4] and in data set [6] were below 2 fold increase and 11 fold increase, respectively.
